Assay results: the DeepSol protein solubility set

Test: soluble on expression in E. coli; label from the status in PepcDB or PDB records

Q: Which “soluble on expression in E. coli” value does the source give for “MAHHHHHHMMSLAIEAVKDFLVKLQDDICEALEAEDGQATFMEDKWTREGGGGGRTRVMVNGAVIEKGGVNFSHVYGKGLPGSSTERHPDMTGCNFQAMGVSLVIHPKNPHVPTSHANVRLFVAEREGKEPVWWFGGGFDLTPYYAVEEDCRYFHQVAQDLCKPFGADVYTRFKVWCDEYFFIPYRNEARGIGGLFFDDLNEWPFEKCFEFVQAVGKGYIDAYIPIVNRRKNTPYTEQQVEFQEFRRGRYAEFNLVIDRGTKFGLQSGGRTESILISLPPRARWGYDWQPEPGTPEARLTEYFLMKRQWV” here?
A: soluble

Q: Which “soluble on expression in E. coli” value does the source give for “MGSDKIHHHHHHMEETVQRIEPARLEDVAEPISDALAELSASSAVLGAKLHPRTAANLADLVRIMNTYYSNLIEGHNTRPRDIERALAGEFDKDQERRNLQVEAAAHVRLQGEIDRLAAEGQLPEPASLDFLRWLHAEFYRDADEAMLRIRGPDREFLMVPGRWRSQPEHDVTVGRHQPPSSDRVEAFMEHFASRYRFQRTGKAARILAIPAAHHRFNYIHPFPDGNGRVSRLMSHAMAHEAGIAAHGLWSISRGLARGLESRGDYKRMMDHADMPRQGDRDGRGNLSMRALADFTLWFLRVCIDQVSFMSSLFDLNQLARRLQRFVQRYDLKPEAFRLLEEALLRGEFDRGEASRIAGLPERTARRVFTEVLELGLLASDTPKGPVSLRFPVDTLDELFPKLFPET” here?
A: not soluble

Q: Which “soluble on expression in E. coli” value does the source give for “MSLQQQPPGTPKSTHGAWSVICDKPAGASEEQCALMQNVIADDRPEVGLSVVILKTADRKSRILRILAPLGVLLKDGMELYIDNNNIGRAYFTRCFSEGCYVEVDIDDELLKVLRAGKNAVFALRESVDQDRVGIPIELSGFAEGYDALPEGHHHHHH” here?
A: not soluble

Q: For “MAEYEFMYIHSLAEHYLQYVLQVPAFESAPSQACRVLQRVAFSVQKEVEKNLKSYLDDFHVESIDTARIIFNQVMEKEFEDGIINWGRIVTIFAFGGVLLKKLPQEQIALDVGAYKQVSSFVAEFIINNTGEWIRRNGGWEDGFIKKFEPKSGWLTFLQMTGQIWEMLFLLK”, which “soluble on expression in E. coli” value is on record?
A: not soluble

Q: For “MRGSHHHHHHGMSCSKSVIKEEMLIDLHLEGTFNGHYFEIKGKGKGQPNEGTNTVTLEVTKGGPLPFGWHILCPQFQYGNKAFVHHPDNIHDYLKLSFPEGYTWERSMHFEDGGLCCITNDISLTGNCFYYDIKFTGLNFPPNGPVVQKKTTGWEPSTERLYPRDGVLIGDIHHALTVEGGGHYACDIKTVYRAKKAALKMPGYHYVDTKLVIWNNDKEFMKVEEHEIAVARHHPFYEPKKDK”, which “soluble on expression in E. coli” value is on record?
A: soluble

Q: For “MEKSIKIGFIGLGAMGKPMAINLLKEGVTVYAFDLMEANVAAVVAQGAQACENNQKVAAASDIIFTSLPNAGIVETVMNGPGGVLSACKAGTVIVDMSSVSPSSTLKMAKVAAEKGIDYVDAPVSGGTKGAEAGTLTIMVGASEAVFEKIQPVLSVIGKDIYHVGDTGAGDAVKIVNNLLLGCNMASLAEALVLGVKCGLKPETMQEIIGKSSGRSYAMEAKMEKFIMSGDFAGGFAMDLQHKDLGLALEAGKEGNVPLPMTAMATQIFEGGRAMGLGREDMSAVIKVWEQMTGVSVSGGQ”, which “soluble on expression in E. coli” value is on record?
A: soluble

Q: Which “soluble on expression in E. coli” value does the source give for “MDLQHWQAQFENWLKNHHQHQDAAHDVCHFRRVWATAQKLAADDDVDMLVILTACYFHDIVSLAKNHPQRQRSSILAAEETRRLLREEFEQFPAEKIEAVCHAIAAHSFSAQIAPLTTEAKIVQDADRLEALGAIGLARVFAVSGALGVALFDGEDPFAQHRPLDDKRYALDHFQTKLLKLPQTMQTARGKQLAQHNAHFLVEFMAKLSAELAGENEGVDHKVIDAFSSAGLEHHHHHH” here?
A: soluble

Q: Which “soluble on expression in E. coli” value does the source give for “MSLKKGYELLIFDWDGTLADSIGRIVEAMNVAAERAGEAQSSDAAVKGIIGLALDEAIHTLYPHLAPAEVASFRQHYADVYVALDQQPSPLFDGVVESLDAFRAEGYRLAVATGKARRGLDRVLKANGWERFFDITRAADETRGKPHPLMLEEILGHCGVEPSRALMVGDSAFDLQMASNAGMHSVAVGYGAMSLQALAEFGPQVCIDHFSQLREWLGGSAIPLPREGHHHHHH” here?
A: soluble

Q: With “MDHDKSKRLPPSYYTLLEASQEKETTSTKILAQYLDRSPATVRTQFQRIMEFLDVSSRYGALREAEKRGLIRRNKRATSAHHQENRSSL” as the sequence, how does the “soluble on expression in E. coli” value read?
A: not soluble
